From US20140235701, “NGF APTAMER AND APPLICATION THEREOF” (RIBOMIC INC., published 2014)

Legend:
Conditions in all cases: tags: R&D Systems; chain copies: 2
NT-3 (neurotrophin-3) = target: T1, NT-3 (neurotrophin-3) (Homo sapiens, UniProt P20783 P20783:139-257); assay: SPR; scarcely bound
T1 sequence: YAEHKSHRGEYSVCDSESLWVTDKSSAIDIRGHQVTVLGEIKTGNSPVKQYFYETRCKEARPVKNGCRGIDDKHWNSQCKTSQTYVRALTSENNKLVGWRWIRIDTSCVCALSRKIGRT
Experimental: (§1) The binding activity of these shortened forms to NGF and NT-3 was measured by the surface plasmon resonance method. For the measurement method, BIAcore2000 manufactured by BIAcore was used and CM5 reactive with amino group was used as a sensorchip, as shown in Example 1. The protein was immobilized in the same manner as in Example 1 by using ethyl-3-carbodiimide hydrochloride and N-hydroxysuccinimide. […] After protein immobilization, blocking with ethanolamine-HCl was performed. The amount of immobilized NGF and NT-3 was 3,000-4,000 RU and 3,000-5,000 RU, respectively. The aptamer for an analyte was prepared to 0.15 μM-0.5 μM. The running buffer and regeneration solution were the same as those in Example 1. NT-3 was immobilized on FC2, and NGF on FC3, and the final sensorgram was obtained by subtracting the results of FC1.
(§2) Then, the aptamers were subjected to shortening to 40 mer in the same manner as with consensus secondary structure 1. […] NT-4 was measured in the same manner as in NT-3.
(§3) The shortened sequences were measured for the binding to NGF, NT-3, NT-4 by the surface plasmon resonance method. The measurement was performed in the same manner as in Example 13.

NT-4 (neurotrophin-4) = target: T2, NT-4 (neurotrophin-4) (Homo sapiens, UniProt P34130 P34130:81-210); assay: SPR; scarcely bound
T2 sequence: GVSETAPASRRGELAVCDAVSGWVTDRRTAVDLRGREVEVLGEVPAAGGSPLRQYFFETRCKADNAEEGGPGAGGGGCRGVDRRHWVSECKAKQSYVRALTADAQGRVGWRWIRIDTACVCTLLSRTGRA
Experimental: as §1, §2, §3

[1] = target: T3, NGF (nerve growth factor) (Homo sapiens, UniProt P01138 P01138:122-241); assay: cell_activity; neurite; TF-1 0.193
T3 sequence (P01138 122-241, one chain of several): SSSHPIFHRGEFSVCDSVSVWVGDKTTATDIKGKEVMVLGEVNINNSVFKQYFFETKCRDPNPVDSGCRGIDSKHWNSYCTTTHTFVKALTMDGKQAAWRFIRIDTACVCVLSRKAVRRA

[2] = target: T3, NGF (nerve growth factor); assay: cell_activity; neurite; TF-1 0.296
[3] = target: T3, NGF (nerve growth factor); assay: cell_activity; neurite; TF-1 0.183
[4] = target: T3, NGF (nerve growth factor); assay: cell_activity; neurite; TF-1 0.322
[5] = target: T3, NGF (nerve growth factor); assay: cell_activity; neurite; TF-1 0.455
[6] = target: T3, NGF (nerve growth factor); assay: cell_activity; TF-1 proliferation
Experimental: (§4) Two NGF receptor (human TrkA and human p75) genes were introduced into TF-1 cells (ATCC Number: CRL-2003), which is a human erythroleukemic cell line, by using a retrovirus vector to give cells that highly express two receptors simultaneously and stably. The cells were suspended in an RPMI-1640 medium containing 20% fetal bovine serum, and seeded in a white 96 well flat-bottom plate at 1000 cells (50 μL) per well. […] With the amount of luminescence per well obtained by the addition of NGF alone and culture of the cells for 3 days as inhibitory activity 0%, and that of the well obtained by NGF free culture for 3 days as inhibitory activity 100%, the inhibitory activity of the aptamer was calculated from the amount of luminescence per well obtained by culturing with the addition of NGF and the aptamer in mixture.

[7] = target: T3, NGF (nerve growth factor); assay: cell_activity; neurite; TF-1 0.311
Experimental: With the neurite length per cell obtained by the addition of NGF alone as inhibitory activity 0%, and that of the cell obtained by NGF free culture for 2 days as inhibitory activity 100%, the inhibitory activity of the aptamer was calculated from the neurite length per cell obtained by culturing with the addition of NGF and the aptamer in mixture.
as §4

[8] = target: T3, NGF (nerve growth factor); assay: cell_activity; neurite; TF-1 >10

B1: SEQ ID NO: 112 (ssRNA)
RNA: GGGUCCUGUUCAAGAGUUUCCGUCUCGUGGACUGUUACCC
modifications: 2'-F C/U, dA, 2'-OH G
- binding result (NT-3 (neurotrophin-3)): no binding
- binding result (NT-4 (neurotrophin-4)): no binding
- IC50 [1]: 0.334 nM

B2: SEQ ID NO: 114 (ssRNA)
RNA: GGGUCCUGACAAAGAGUUUCCGUCUCGUUGUCUGUUACCC
modifications: 2'-F C/U, dA, 2'-OH G
- binding result (NT-3 (neurotrophin-3)): no binding
- binding result (NT-4 (neurotrophin-4)): no binding
- IC50 [2]: 0.363 nM

B3: SEQ ID NO: 115 (ssRNA)
RNA: GGGUCCUGUCUAAGAGUUUCCGUCUCGUAGACUGUUACCC
modifications: 2'-F C/U, dA, 2'-OH G
- binding result (NT-3 (neurotrophin-3)): no binding
- binding result (NT-4 (neurotrophin-4)): no binding
- IC50 [3]: 0.298 nM

B4: SEQ ID NO: 116 (ssRNA)
RNA: GGGUCCUGUUCAAGAGUUUCCGUCUCGUGAACUGUUACCC
modifications: 2'-F C/U, dA, 2'-OH G
- binding result (NT-3 (neurotrophin-3)): no binding
- IC50 [4]: 0.411 nM

B5: SEQ ID NO: 117 (ssRNA)
RNA: GGGUCCUGUUGAAGAGUUUCCGUCUCGUCAACUGUUACCC
modifications: 2'-F C/U, dA, 2'-OH G
- binding result (NT-3 (neurotrophin-3)): no binding
- binding result (NT-4 (neurotrophin-4)): no binding
- IC50 [5]: 0.394 nM

B6: SEQ ID NO: 62(1) (ssRNA)
RNA: GGGUCCUGCUGCGGAGUUUCCGUCUCGGUGGCUGUUACCC
modifications: 2'-OMe G (G8,G34 2'-OH), dA, 2'-F C/U; 5',3' idT
- IC50 [6]: 0.49 nM

B7: SEQ ID NO: 85 (ssRNA)
RNA: GGGUCCUGAGUAAGAGUUUCCGUCUCAUACUCUGUUACCC
modifications: 2'-F C/U, dA, 2'-OH G
- IC50 [7]: < 0.3 nM

B8: SEQ ID NO: 86 (ssRNA)
RNA: GGGUCCUGCUGCGUAGUUUCCUUCUGCGUGGUUGUUACCC
modifications: 2'-F C/U, dA, 2'-OH G
- IC50 [8]: 0.834 nM
